Results: patent US20250197467A1 (BRIGHT PEAK THERAPEUTICS, published 2025)

T1: IL-18 receptor (IL-18Rαβ) on cells (UniProt Q13478 19-541; O95256 20-599, limits assumed)
T1 sequence (looked up) 1: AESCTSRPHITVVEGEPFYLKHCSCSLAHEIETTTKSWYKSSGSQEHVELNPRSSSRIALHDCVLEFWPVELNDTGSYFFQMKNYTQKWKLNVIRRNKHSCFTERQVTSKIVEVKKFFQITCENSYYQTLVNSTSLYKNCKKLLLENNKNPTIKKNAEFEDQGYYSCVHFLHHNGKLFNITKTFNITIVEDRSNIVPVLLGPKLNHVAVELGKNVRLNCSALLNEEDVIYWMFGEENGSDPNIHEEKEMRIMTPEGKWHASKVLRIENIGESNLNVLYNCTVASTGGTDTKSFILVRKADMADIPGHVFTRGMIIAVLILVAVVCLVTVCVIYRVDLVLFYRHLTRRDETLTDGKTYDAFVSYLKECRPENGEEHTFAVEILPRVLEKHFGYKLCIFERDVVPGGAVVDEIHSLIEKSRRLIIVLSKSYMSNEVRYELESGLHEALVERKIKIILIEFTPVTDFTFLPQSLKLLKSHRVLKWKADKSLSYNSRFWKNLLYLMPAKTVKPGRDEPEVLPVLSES
T1 sequence (looked up) 2: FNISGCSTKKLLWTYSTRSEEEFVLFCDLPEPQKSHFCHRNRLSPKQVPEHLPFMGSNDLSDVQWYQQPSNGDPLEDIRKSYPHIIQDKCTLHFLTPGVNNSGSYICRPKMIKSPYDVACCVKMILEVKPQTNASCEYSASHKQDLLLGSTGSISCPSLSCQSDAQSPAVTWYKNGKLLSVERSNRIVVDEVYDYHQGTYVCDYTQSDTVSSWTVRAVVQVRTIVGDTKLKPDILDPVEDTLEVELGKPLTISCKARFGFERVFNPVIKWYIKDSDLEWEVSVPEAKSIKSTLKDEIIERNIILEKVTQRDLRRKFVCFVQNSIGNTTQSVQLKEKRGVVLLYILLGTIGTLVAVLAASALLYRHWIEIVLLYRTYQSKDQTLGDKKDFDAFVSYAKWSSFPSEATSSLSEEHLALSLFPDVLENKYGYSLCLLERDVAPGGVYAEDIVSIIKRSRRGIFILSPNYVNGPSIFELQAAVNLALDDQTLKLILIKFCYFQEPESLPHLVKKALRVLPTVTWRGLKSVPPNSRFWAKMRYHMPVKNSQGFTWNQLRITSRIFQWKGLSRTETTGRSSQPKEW


How the values were obtained:
[1] = target: T1, IL-18 receptor (IL-18Rαβ) on cells; assay: cell-based or functional assay
[2] = target: T1, IL-18 receptor (IL-18Rαβ) on cells; assay: cell-based or functional assay; remark: listed apart in the source

HEK-Blue IL-18R reporter EC50 [1] [nM]	EC50 (IFNγ stimulation, NK92) [2] [nM]	Binder
0.00728	0.256	C148 (ligand) YAGKLESKLSIIRNLNDQVLFIDQGNRPLFEDMTDSDARDNAPRTIFIISMYADSQPRGMAVTISVKCEKISTLSAENKIISFKEMNPPDNIKDTKSDIIFFQRSVPGHDNKMQFESSSYEGYFLAAEKERDLFKLILKKEDELGDRSIMFTVQNED
0.0066	0.187	C149 (ligand) YFGKLESKLSIIRNLNDQVLFIDQGNRPLFADMTDSDARDNAPRTIFIISMYADSQPRGMAVTISVKCEKISTLSAENKIISFKEMNPPDNIKDTKSDIIFFQRSVPGHDNKMQFESSSYEGYFLAAEKERDLFKLILKKEDELGDRSIMFTVQNED
0.0007	0.015	C150 (ligand) YFGKLESKLSIIRNLNDQVLFIDQGNRPLFEDMADSDARDNAPRTIFIISMYADSQPRGMAVTISVKCEKISTLSAENKIISFKEMNPPDNIKDTKSDIIFFQRSVPGHDNKMQFESSSYEGYFLAAEKERDLFKLILKKEDELGDRSIMFTVQNED
0.0131	0.061	C151 (ligand) YFGKLESKLSIIRNLNDQVLFIDQGNRPLFEDMTASDARDNAPRTIFIISMYADSQPRGMAVTISVKCEKISTLSAENKIISFKEMNPPDNIKDTKSDIIFFQRSVPGHDNKMQFESSSYEGYFLAAEKERDLFKLILKKEDELGDRSIMFTVQNED
0.00025	0.033	C152 (ligand) YFGKLESKLSIIRNLNDQVLFIDQGNRPLFEDMTDADARDNAPRTIFIISMYADSQPRGMAVTISVKCEKISTLSAENKIISFKEMNPPDNIKDTKSDIIFFQRSVPGHDNKMQFESSSYEGYFLAAEKERDLFKLILKKEDELGDRSIMFTVQNED
0.0141	0.175	C153 (ligand) YFGKLESKLSIIRNLNDQVLFIDQGNRPLFEDMTDSAARDNAPRTIFIISMYADSQPRGMAVTISVKCEKISTLSAENKIISFKEMNPPDNIKDTKSDIIFFQRSVPGHDNKMQFESSSYEGYFLAAEKERDLFKLILKKEDELGDRSIMFTVQNED
0.0119	0.062	C154 (ligand) YFGKLESKLSIIRNLNDQVLFIDQGNRPLFADMTDSAARDNAPRTIFIISMYADSQPRGMAVTISVKCEKISTLSAENKIISFKEMNPPDNIKDTKSDIIFFQRSVPGHDNKMQFESSSYEGYFLAAEKERDLFKLILKKEDELGDRSIMFTVQNED
0.00052	0.067	C155 (ligand) YFGKLESKLSIIRNLNDQVLFIDQGNRPLFEDMTDSDARANAPRTIFIISMYADSQPRGMAVTISVKCEKISTLSAENKIISFKEMNPPDNIKDTKSDIIFFQRSVPGHDNKMQFESSSYEGYFLAAEKERDLFKLILKKEDELGDRSIMFTVQNED
0.0117	0.558	C156 (ligand) YFGKLESKLSIIRNLNDQVLFIDQGNRPLFEDMTDSDARDAAPRTIFIISMYADSQPRGMAVTISVKCEKISTLSAENKIISFKEMNPPDNIKDTKSDIIFFQRSVPGHDNKMQFESSSYEGYFLAAEKERDLFKLILKKEDELGDRSIMFTVQNED
0.00195	0.056	C157 (ligand) YFGKLESKLSIIRNLNDQVLFIDQGNRPLFEDMTDSDARDNAPRTIFIISMYADSQPRGMAVTISVKCEKISTLSAENKIISFKEMNPPDNIKDTKSDIIFFQRSVPGHDNKMQFESSSYEGYFLAAEKERALFKLILKKEDELGDRSIMFTVQNED
0.0156	0.073	C158 (ligand) YFGKLESKLSIIRNLNDQVLFIDQGNRPLFEDMTDSDARDNAPRTIFIISMYADSQPRGMAVTISVKCEKISTLSAENKIISFKEMNPPDNIKDTKSDIIFFQRSVPAHDNKMQFESSSYEGYFLAAEKERDLFKLILKKEDELGDRSIMFTVQNED
0.0195	0.123	C159 (ligand) YFGKLESKLSIIRNLNDQVLFIDQGNRPLFEDMTDSDARDNAPRTIFIISMYADSQPRGMAVTISVKCEKISTLSAENKIISFKEMNPPDNIKDTKSDIIFFQRSVPGADNKMQFESSSYEGYFLAAEKERDLFKLILKKEDELGDRSIMFTVQNED
0.00202	0.028	C160 (ligand) YFGKLESKLSIIRNLNDQVLFIDQGNRPLFEDMTDSDARDNAPRTIFIISMYADSQPRGMAVTISVKCEKISTLSAENKIISFKEMNPPDNIKDTKSDIIFFQRSVPGHANKMQFESSSYEGYFLAAEKERDLFKLILKKEDELGDRSIMFTVQNED
0.00201	0.057	C161 (ligand) YFGKLESRLSIIRNLNDQVLFIDQGNRPLFEDMTDSDARDNAPRTIFIISMYKDSQPRGMAVTISVKCEKISTLSAENKIISFKEMNPPDNIKDTKSDIIFFERSVPGHDNKMQFESSSYEGYFLAAEKERDLFKLILKKEDELGDRSIMFTVQNED
0.0023	0.061	C162 (ligand) YFGKLESELSIIRNLNDQVLFIDQGNRPLFEDMTDSDARDNAPRTIFIISMYKDSQPRGMAVTISVKCEKISTLSAENKIISFKEMNPPDNIKDTKSDIIFFRRSVPGHDNKMQFESSSYEGYFLAAEKERDLFKLILKKEDELGDRSIMFTVQNED
0.0015	0.093	C163 (ligand) YFGKLESKLSIIRNLNDQVLFIDQGNRPLFEDMTDSDARDNAPRTIFIISMYKDSQPRGMAVTISVKCEKISTLSAENKIISFKEMNPPDNIKDTKSDIIFFKRSVPGHDNKMQFESSSYEGYFLAAEKERDLFKLILKKEDELGDRSIMFTVQNED
0.00314	0.414	C164 (ligand) YFGKLESKLSIIRNLNDQVLFIDQGNRPLFEDMTDSDARDNAPRTIFIISMYKDHQPRGMAVTISVKCEKISTLSAENKIISFKEMNPPDNIKDTKSDIIFFQRSVPGHDNKMQFESSSYEGYFLAAEKERDLFKLILKKEDELGDRSIMFTVQNED
0.00191	0.176	C165 (ligand) YFGKLESKLSIIRNLNDQVLFIDQGNRPLFEDMTDSDARDNAPRTIFIISMYKDRQPRGMAVTISVKCEKISTLSAENKIISFKEMNPPDNIKDTKSDIIFFQRSVPGHDNKMQFESSSYEGYFLAAEKERDLFKLILKKEDELGDRSIMFTVQNED
0.00473	0.098	C166 (ligand) YFGKLESKLSIIRNLNDQVLFIDQGNRPLFEDMTDSDARDNAPRTIFIISMYKDTQPRGMAVTISVKCEKISTLSAENKIISFKEMNPPDNIKDTKSDIIFFQRSVPGHDNKMQFESSSYEGYFLAAEKERDLFKLILKKEDELGDRSIMFTVQNED
0.00537	0.103	C167 (ligand) YFGKLESKLSIIRNLNDQVLFIDQGNRPLFEDMTDSDARDNAPRTIFIISMYKDSQPRGMAVTISVKCEKISTLSAENKIISFKEMNPPDNIKDTKSDIIFFQRIVPGHDNKMQFESSSYEGYFLAAEKERDLFKLILKKEDELGDRSIMFTVQNED
0.00773	0.098	C168 (ligand) YFGKLESKLSIIRNLNDQVLFIDQGNRPLFEDMTDSDARDNAPRTIFIISMYKDSQPRGMAVTISVKCEKISTLSAENKIISFKEMNPPDNIKDTKSDIIFFQRKVPGHDNKMQFESSSYEGYFLAAEKERDLFKLILKKEDELGDRSIMFTVQNED
